# Results reported in the Human Domainome abundance scans (Beltran et al. 2025).
# ± gives the uncertainty stated by the source.
# B1: Friend leukemia integration 1 transcription factor, residues 116 to 197; numbered along this chain, Q01543 (parent)
# chain: NMTTNERRVIVPADPTLWTQEHVRQWLEWAIKEYSLMEIDTSFFQNMDGKELCKMNKEDFLRATTLYNTEVLLSHLSYLRES
# Variants of: B1
# Assay: abundance fitness (aPCA) (normalised: wild type 0, dead -1); higher = more abundant; growth selection in yeast, the domain comes from the species named
# Settings: Homo sapiens
row,Variant,abundance fitness
1,NMTTNERRVIVPHDPTLWTQEHVRQWLEWAIKEYSLMEIDTSFFQNMDGKELCKMNKEDFLRATTLYNTEVLLSHLSYLRES [A13H],-0.179 ± 0.14
2,NMTTNERRVIVPQDPTLWTQEHVRQWLEWAIKEYSLMEIDTSFFQNMDGKELCKMNKEDFLRATTLYNTEVLLSHLSYLRES [A13Q],0.106 ± 0.07
3,NMTTNERRVIVPVDPTLWTQEHVRQWLEWAIKEYSLMEIDTSFFQNMDGKELCKMNKEDFLRATTLYNTEVLLSHLSYLRES [A13V],0.017 ± 0.055
4,NMTTNERRVIVPRDPTLWTQEHVRQWLEWAIKEYSLMEIDTSFFQNMDGKELCKMNKEDFLRATTLYNTEVLLSHLSYLRES [A13R],0.023 ± 0.041
5,NMTTNERRVIVPYDPTLWTQEHVRQWLEWAIKEYSLMEIDTSFFQNMDGKELCKMNKEDFLRATTLYNTEVLLSHLSYLRES [A13Y],-0.072 ± 0.084
6,NMTTNERRVIVTADPTLWTQEHVRQWLEWAIKEYSLMEIDTSFFQNMDGKELCKMNKEDFLRATTLYNTEVLLSHLSYLRES [P12T],-0.021 ± 0.097
7,NMTTNERRVIVDADPTLWTQEHVRQWLEWAIKEYSLMEIDTSFFQNMDGKELCKMNKEDFLRATTLYNTEVLLSHLSYLRES [P12D],0.095 ± 0.15
8,NMTTNERRVIVYADPTLWTQEHVRQWLEWAIKEYSLMEIDTSFFQNMDGKELCKMNKEDFLRATTLYNTEVLLSHLSYLRES [P12Y],-0.227 ± 0.19
9,NMTTNERRVIVNADPTLWTQEHVRQWLEWAIKEYSLMEIDTSFFQNMDGKELCKMNKEDFLRATTLYNTEVLLSHLSYLRES [P12N],-0.021 ± 0.27
10,NMTTNERRVIVLADPTLWTQEHVRQWLEWAIKEYSLMEIDTSFFQNMDGKELCKMNKEDFLRATTLYNTEVLLSHLSYLRES [P12L],-0.344 ± 0.098
11,NMTTNERRVIVRADPTLWTQEHVRQWLEWAIKEYSLMEIDTSFFQNMDGKELCKMNKEDFLRATTLYNTEVLLSHLSYLRES [P12R],-0.053 ± 0.077
12,NMTTNERRVIVMADPTLWTQEHVRQWLEWAIKEYSLMEIDTSFFQNMDGKELCKMNKEDFLRATTLYNTEVLLSHLSYLRES [P12M],-0.095 ± 0.12
13,NMTTNERRVIVEADPTLWTQEHVRQWLEWAIKEYSLMEIDTSFFQNMDGKELCKMNKEDFLRATTLYNTEVLLSHLSYLRES [P12E],0.12 ± 0.15
14,NMTTNERRVIVVADPTLWTQEHVRQWLEWAIKEYSLMEIDTSFFQNMDGKELCKMNKEDFLRATTLYNTEVLLSHLSYLRES [P12V],-0.447 ± 0.1
15,NMTTNERRVIVAADPTLWTQEHVRQWLEWAIKEYSLMEIDTSFFQNMDGKELCKMNKEDFLRATTLYNTEVLLSHLSYLRES [P12A],-0.186 ± 0.093
16,NMTTNERRVIVGADPTLWTQEHVRQWLEWAIKEYSLMEIDTSFFQNMDGKELCKMNKEDFLRATTLYNTEVLLSHLSYLRES [P12G],-0.039 ± 0.088
17,NMTTNERRVIVFADPTLWTQEHVRQWLEWAIKEYSLMEIDTSFFQNMDGKELCKMNKEDFLRATTLYNTEVLLSHLSYLRES [P12F],-0.225 ± 0.16

row,Variant,abundance fitness
1,NMTTNERRVIVSADPTLWTQEHVRQWLEWAIKEYSLMEIDTSFFQNMDGKELCKMNKEDFLRATTLYNTEVLLSHLSYLRES [P12S],0.079 ± 0.087
2,NMTTNERRVIVCADPTLWTQEHVRQWLEWAIKEYSLMEIDTSFFQNMDGKELCKMNKEDFLRATTLYNTEVLLSHLSYLRES [P12C],-0.178 ± 0.15
3,NMTTNERRVIVKADPTLWTQEHVRQWLEWAIKEYSLMEIDTSFFQNMDGKELCKMNKEDFLRATTLYNTEVLLSHLSYLRES [P12K],-0.155 ± 0.12
4,NMTTNERRVIVHADPTLWTQEHVRQWLEWAIKEYSLMEIDTSFFQNMDGKELCKMNKEDFLRATTLYNTEVLLSHLSYLRES [P12H],-0.085 ± 0.11
5,NMTTNERRVIVIADPTLWTQEHVRQWLEWAIKEYSLMEIDTSFFQNMDGKELCKMNKEDFLRATTLYNTEVLLSHLSYLRES [P12I],-0.193 ± 0.32
6,NMTTNERRVLVPADPTLWTQEHVRQWLEWAIKEYSLMEIDTSFFQNMDGKELCKMNKEDFLRATTLYNTEVLLSHLSYLRES [I10L],-0.148 ± 0.069
7,NMTTNERRVYVPADPTLWTQEHVRQWLEWAIKEYSLMEIDTSFFQNMDGKELCKMNKEDFLRATTLYNTEVLLSHLSYLRES [I10Y],-0.237 ± 0.19
8,NMTTNERRVVVPADPTLWTQEHVRQWLEWAIKEYSLMEIDTSFFQNMDGKELCKMNKEDFLRATTLYNTEVLLSHLSYLRES [I10V],0.035 ± 0.075
9,NMTTNERRVQVPADPTLWTQEHVRQWLEWAIKEYSLMEIDTSFFQNMDGKELCKMNKEDFLRATTLYNTEVLLSHLSYLRES [I10Q],0.03 ± 0.1
10,NMTTNERRVKVPADPTLWTQEHVRQWLEWAIKEYSLMEIDTSFFQNMDGKELCKMNKEDFLRATTLYNTEVLLSHLSYLRES [I10K],0.086 ± 0.12
11,NMTTNERRVMVPADPTLWTQEHVRQWLEWAIKEYSLMEIDTSFFQNMDGKELCKMNKEDFLRATTLYNTEVLLSHLSYLRES [I10M],-0.012 ± 0.1
12,NMTTNERRVWVPADPTLWTQEHVRQWLEWAIKEYSLMEIDTSFFQNMDGKELCKMNKEDFLRATTLYNTEVLLSHLSYLRES [I10W],-0.197 ± 0.12
13,NMTTNERRVTVPADPTLWTQEHVRQWLEWAIKEYSLMEIDTSFFQNMDGKELCKMNKEDFLRATTLYNTEVLLSHLSYLRES [I10T],0.092 ± 0.089
14,NMTTNERRVSVPADPTLWTQEHVRQWLEWAIKEYSLMEIDTSFFQNMDGKELCKMNKEDFLRATTLYNTEVLLSHLSYLRES [I10S],0.231 ± 0.12
15,NMTTNERRVNVPADPTLWTQEHVRQWLEWAIKEYSLMEIDTSFFQNMDGKELCKMNKEDFLRATTLYNTEVLLSHLSYLRES [I10N],0.103 ± 0.23
16,NMTTNERRVRVPADPTLWTQEHVRQWLEWAIKEYSLMEIDTSFFQNMDGKELCKMNKEDFLRATTLYNTEVLLSHLSYLRES [I10R],0.098 ± 0.072
17,NMTTNERRVPVPADPTLWTQEHVRQWLEWAIKEYSLMEIDTSFFQNMDGKELCKMNKEDFLRATTLYNTEVLLSHLSYLRES [I10P],0.26 ± 0.088
